According to patent publication US20080227123A1:

Target: B cell antigen receptor (BCR; surface IgM) on DT40-ASF cells (chicken)
Test: cell-based or functional assay

recovery of cell proliferation of doxycycline-treated DT40-ASF cells: > 1 µg/mL
Substance: antibody M4 (mouse-derived anti-chicken IgM monoclonal antibody)
